According to paper PMC5859096:

Columns and labels:
[1] = molecular target: His6-BldC (Streptomyces coelicolor) (UniProt A0A0M7QSG5); test: fluorescence polarization; conditions: FP: 25 mM Tris pH 7.5, 150 mM NaCl, 1 nM F-DNA, 25 C, footprinting: 10 mM Tris HCl pH 7.8, 150 mM NaCl, 2 mM DTT, 1 ug poly(dI-dC), 10% glycerol (none for …)
[2] = tested on: T1, His6-BldC (Streptomyces coelicolor), ORF:188ed25c; test: EMSA; conditions: FP: 25 mM Tris pH 7.5, 150 mM NaCl, 1 nM F-DNA, 25 C; footprinting: 10 mM Tris HCl pH 7.8, 150 mM NaCl, 2 mM DTT, 1 ug poly(dI-dC), 10% glycerol (none for …)
T1 sequence: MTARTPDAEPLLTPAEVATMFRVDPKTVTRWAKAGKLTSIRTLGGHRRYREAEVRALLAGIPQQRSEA

[3] = tested on: T1, His6-BldC (Streptomyces coelicolor), ORF:188ed25c; test: DNase I footprinting; conditions: FP: 25 mM Tris pH 7.5, 150 mM NaCl, 1 nM F-DNA, 25 C; footprinting: 10 mM Tris HCl pH 7.8, 150 mM NaCl, 2 mM DTT, 1 ug poly(dI-dC), 10% glycerol (none for …)
[4] = tested on: T1, His6-BldC (Streptomyces coelicolor), ORF:188ed25c; test: hydroxyl radical footprinting; conditions: FP: 25 mM Tris pH 7.5, 150 mM NaCl, 1 nM F-DNA, 25 C; footprinting: 10 mM Tris HCl pH 7.8, 150 mM NaCl, 2 mM DTT, 1 ug poly(dI-dC), 10% glycerol (none for …)
[5] = molecular target: His6-BldC(E16R) (Streptomyces coelicolor) (UniProt A0A0M7QSG5); test: fluorescence polarization; conditions: FP: 25 mM Tris pH 7.5, 150 mM NaCl, 1 nM F-DNA, 25 C; footprinting: 10 mM Tris HCl pH 7.8, 150 mM NaCl, 2 mM DTT, 1 ug poly(dI-dC), 10% glycerol (none for …)
[6] = molecular target: His6-SeMet BldC(L43M-L58M) (Streptomyces coelicolor) (UniProt A0A0M7QSG5); test: fluorescence polarization; conditions: FP: 25 mM Tris pH 7.5, 150 mM NaCl, 1 nM F-DNA, 25 C; footprinting: 10 mM Tris HCl pH 7.8, 150 mM NaCl, 2 mM DTT, 1 ug poly(dI-dC), 10% glycerol (none for …)
[7] = molecular target: Tag-free BldC (Streptomyces coelicolor) (UniProt A0A0M7QSG5); test: fluorescence polarization; conditions: FP: 25 mM Tris pH 7.5, 150 mM NaCl, 1 nM F-DNA, 25 C; footprinting: 10 mM Tris HCl pH 7.8, 150 mM NaCl, 2 mM DTT, 1 ug poly(dI-dC), 10% glycerol (none for …)
[8] = stoichiometry 4:1, WT BldC, tag status not stated

Sequence “ATTCGGACAATTCGGACAATTCGGACAATTCGGACA (double strand) [36mer opt]” has a Kd [1, 8] of 20 nM.

With “CGAGAGGATCATGTGAGTTCTCCTGGTTCACGGGGACAGTCACCATGAGTACTTCCAGGCTCACAGCATGTATCCATACGATAAAAGGTGCAAATGGGGGAAATTCGACCGAATTACCTCAGGTGGCGGAGCGCTCCTTGGGCCGCTCGGGTGTGCCGCGAGCCAGTACCCTGGCGGTTCAC (double strand) [smeA-sffA promoter PCR probe]” the binding [2] was “binds”, the binding [3] was “binds” and the binding [4] was “binds”.

“GAGAACGGACACCAGGCCTCCTGGGGTGCGGGGACGGGGCCGGCTCATGGGGTTTAAGCCGGGACGAACCGTGCTTTCAAGGTCACAGTCGTCTTCGGCACCGAACGCGTCCGCCTTTAGAGAATGATCACGATCTGGTGAGTAACAATCCGAGCAATTCGGACACACTGTCGATCATTCGAAGATCGAACGGTTCCGCACTTTGTCGATACGAGGCCGAAAGTGGCCGTGTCGACAAAGTGACGGAACCTCCTCCGGACGTGCGGACCCCCTGCCCGGAACGATGAACGACGGCTGG (double strand) [whiI promoter PCR probe]” was tested, and the binding [3] was “binds”.

In the case of “TAATTCGGTCGAATTTCCCCCATTTGCACCTTTTATCGTA (double strand) [smeA-ssfA site]”, the Kd [1, 8] is reported as 60 nM.

“TTCAATTCGCACAATTCGCACA / AATGTGCGAATTGTGCGAATTG [whiI opt bp 8 and 17 to C]” was tested, and the Kd [1] was 115 nM.

“TTCAATTCGGACAATTCGGACA / AATGTCCGAATTGTCCGAATTG [whiI opt 22mer (FP)]” showed a Kd [1] of 18.2 nM, a Kd ([1]; stoichiometry 2:1 (Fig. 5a)) of 20 nM and a Kd [5] of 140 nM. It also gave a Kd [6] of 19.6 nM and a Kd [7] of 16.5 nM.

“TTCAATTCGTACAATTCGTACA / AATGTACGAATTGTACGAATTG [whiI opt bp 8 and 17 to T]” gave a Kd [1] of 50 nM.
